Results published in US20140227262A1, “PD-1 Antagonists and Methods for Treating Infectious Disease” (AMPLIMMUNE, INC., priority 2008, published 2014).

B1: D111S: murine B7-DC-Ig with the D111S substitution (protein)
chain: LFTVTAPKEVYTVDVGSSVSLECDFDRRECTELEGIRASLQKVENDTSLQSERATLLEEQLPLGKALFHIPSVQVRDSGQYRCLVICGAAWSYKYLTVKVKASYMRIDTRILEVPGTGEVQLTCQARGYPLAEVSWQNVSVPANTSHIRTPEGLYQVTSVLRLKPQPSRNFSCMFWNAHMKELTSAIIDPLSRMEPKVPRTWEPRGPTIKPCPPCKCPAPNLLGGPSVFIFPPKIKDVLMISLSPIVTCVVVDVSEDDPDVQISWFVNNVEVHTAQTQTHREDYNSTLRVVSALPIQHQDWMSGKEFKCKVNNKDLPAPIERTISKPKGSVRAPQVYVLPPPEEEMTKKQVTLTCMVTDFMPEDIYVEWTNNGKTELNYKNTEPVLDSDGSYFMYSKLRVEKKNWVERNSYSCSVVHEGLHNHHTTKSFSRTPGK
B2: K113S: murine B7-DC-Ig with the K113S substitution (protein)
chain: LFTVTAPKEVYTVDVGSSVSLECDFDRRECTELEGIRASLQKVENDTSLQSERATLLEEQLPLGKALFHIPSVQVRDSGQYRCLVICGAAWDYSYLTVKVKASYMRIDTRILEVPGTGEVQLTCQARGYPLAEVSWQNVSVPANTSHIRTPEGLYQVTSVLRLKPQPSRNFSCMFWNAHMKELTSAIIDPLSRMEPKVPRTWEPRGPTIKPCPPCKCPAPNLLGGPSVFIFPPKIKDVLMISLSPIVTCVVVDVSEDDPDVQISWFVNNVEVHTAQTQTHREDYNSTLRVVSALPIQHQDWMSGKEFKCKVNNKDLPAPIERTISKPKGSVRAPQVYVLPPPEEEMTKKQVTLTCMVTDFMPEDIYVEWTNNGKTELNYKNTEPVLDSDGSYFMYSKLRVEKKNWVERNSYSCSVVHEGLHNHHTTKSFSRTPGK
B3: wild type murine B7-DC-Ig: murine PD-L2 (B7-DC) fusion protein; representative sequence SEQ ID NO: 53/54 (protein, listed as Mus musculus)
chain: MLLLLPILNLSLQLHPVAALFTVTAPKEVYTVDVGSSVSLECDFDRRECTELEGIRASLQKVENDTSLQSERATLLEEQLPLGKALFHIPSVQVRDSGQYRCLVICGAAWDYKYLTVKVKASYMRIDTRILEVPGTGEVQLTCQARGYPLAEVSWQNVSVPANTSHIRTPEGLYQVTSVLRLKPQPSRNFSCMFWNAHMKELTSAIIDPLSRMEPKVPRTWEPRGPTIKPCPPCKCPAPNLLGGPSVFIFPPKIKDVLMISLSPIVTCVVVDVSEDDPDVQISWFVNNVEVHTAQTQTHREDYNSTLRVVSALPIQHQDWMSGKEFKCKVNNKDLPAPIERTISKPKGSVRAPQVYVLPPPEEEMTKKQVTLTCMVTDFMPEDIYVEWTNNGKTELNYKNTEPVLDSDGSYFMYSKLRVEKKNWVERNSYSCSVVHEGLHNHHTTKSFSRTPGK

How the values were obtained:
[1] = system: CT26 colorectal tumor cells; assay: Established CT26 colorectal tumor model; settings: 100 mg/kg cyclophosphamide on day 10, alone
Excerpt: Balb/C mice at age of 9 to 11 weeks were implanted subcutaneously with 1.0×10^5 CT26 colorectal tumor cells.

[2] = target: T1, recombinant human PD-1/Fc (Homo sapiens, UniProt Q15116); assay: PD-1 binding ELISA, human B7-DC-Ig; settings: four different lots, FIG. 1A
T1 construct: Fc (immunoglobulin Fc fusion partner); purchased R&D Systems
Protocol: (§1) 96-well ELISA plates were coated with 100 μL 0.75 ug/mL recombinant human PD-1/Fc (R&D Systems) diluted in BupH Carbonate/Bicarbonate pH 9.4 buffer (Pierce) for 2 hours and then blocked with BSA solution (Jackson ImmunoResearch) for 90-120 minutes. […] Absorbance at 450 nm was read using a plate reader (Molecular Devices) and data were analyzed in SoftMax using a 4-parameter logistic fit.

[3] = target: T2, recombinant mouse PD-1/Fc (Mus musculus, UniProt Q02242); assay: PD-1 binding ELISA, murine B7-DC-Ig; settings: FIG. 1B
T2 construct: Fc (immunoglobulin Fc fusion partner); purchased R&D Systems
Protocol: as §1, with “mouse” for “human”, “(Candor-Bioscience)” for “(Jackson ImmunoResearch)”, “90” for “90-120”

T2 sequence (Q02242 with tags, fused parts or gaps limits assumed): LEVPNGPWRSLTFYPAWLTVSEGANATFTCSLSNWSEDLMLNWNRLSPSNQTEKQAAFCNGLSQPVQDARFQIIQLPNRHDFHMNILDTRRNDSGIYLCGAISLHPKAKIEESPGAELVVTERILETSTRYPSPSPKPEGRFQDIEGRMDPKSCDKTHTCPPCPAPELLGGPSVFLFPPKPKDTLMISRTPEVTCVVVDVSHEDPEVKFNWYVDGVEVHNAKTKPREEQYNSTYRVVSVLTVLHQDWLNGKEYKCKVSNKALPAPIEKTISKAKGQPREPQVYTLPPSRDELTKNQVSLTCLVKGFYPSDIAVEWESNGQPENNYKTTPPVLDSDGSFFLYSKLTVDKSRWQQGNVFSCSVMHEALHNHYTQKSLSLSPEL
T1 sequence (Q15116 with tags, fused parts or gaps limits assumed): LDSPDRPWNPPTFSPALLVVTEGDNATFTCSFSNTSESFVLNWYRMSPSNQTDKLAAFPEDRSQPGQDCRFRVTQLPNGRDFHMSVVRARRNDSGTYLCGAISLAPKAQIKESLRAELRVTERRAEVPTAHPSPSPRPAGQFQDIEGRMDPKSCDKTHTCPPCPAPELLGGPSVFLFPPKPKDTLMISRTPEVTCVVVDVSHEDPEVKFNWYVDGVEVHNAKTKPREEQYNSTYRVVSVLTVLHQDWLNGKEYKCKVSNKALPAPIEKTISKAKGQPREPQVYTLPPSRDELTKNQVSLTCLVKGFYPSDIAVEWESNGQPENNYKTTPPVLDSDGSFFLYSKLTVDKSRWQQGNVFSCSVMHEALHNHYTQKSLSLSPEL

Row | Molecule | binding to PD-1 in PD-1 binding ELISA (OD450) [3] | also measured
1 | O=P1(N(CCCl)CCCl)NCCCO1 (centres unmarked) [CTX, cyclophosphamide] | – | outcome of tumor-bearing mice (death or euthanasia) [1]: died as a result of tumor growth or were euthanized
2 | human B7-DC-Ig: human PD-L2 (B7-DC) fusion protein; representative sequence SEQ ID NO: 56/57 | – | binding to PD-1 in PD-1 binding ELISA (OD450) [2]: binding to PD-1
3 | B1 | reduced binding to PD-1 | –
4 | B2 | reduced binding to PD-1 | –
5 | B3 | binding to PD-1 | –
